Biological target: T1, full-length human LAG-3 on cells (human, UniProt P18627 23-525)
T1 construct: Expressed on Flp-In-293, CHO or 293F transfectants; also called hPro1.FL; cell surface human LAG-3
T1 sequence: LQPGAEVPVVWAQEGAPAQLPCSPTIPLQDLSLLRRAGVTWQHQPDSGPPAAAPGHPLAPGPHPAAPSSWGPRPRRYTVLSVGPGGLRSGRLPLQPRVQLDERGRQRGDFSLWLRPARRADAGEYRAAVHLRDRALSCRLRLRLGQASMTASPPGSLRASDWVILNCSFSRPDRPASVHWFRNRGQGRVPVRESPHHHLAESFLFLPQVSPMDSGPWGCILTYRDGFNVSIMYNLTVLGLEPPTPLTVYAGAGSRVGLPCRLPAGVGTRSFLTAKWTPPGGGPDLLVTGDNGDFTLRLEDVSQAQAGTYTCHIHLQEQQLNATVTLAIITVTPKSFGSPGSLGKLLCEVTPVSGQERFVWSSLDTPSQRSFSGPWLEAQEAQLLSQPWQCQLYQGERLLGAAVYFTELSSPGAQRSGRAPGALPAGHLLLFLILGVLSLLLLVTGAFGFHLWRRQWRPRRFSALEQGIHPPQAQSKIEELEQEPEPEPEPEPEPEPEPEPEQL
Assay: FACS competition on Flp-In-293 cells expressing human LAG-3: biotinylated BMK7 at 1 ug/mL, serially diluted antibody, Streptavidin-PE
Protocol: The binding epitope of LAG-3 antibodies was binned against benchmark antibodies BMK1, BMK7 and BMK5 by FACS assay. Flp-In-293 cells expressing human LAG-3 at the cell surface were incubated with biotinylated benchmark antibodies at concentration of 1 μg/mL for 1 hour, followed by the adding of serially diluted LAG-3 antibodies. Streptavidin-PE antibody (Jackson Immunoresearch Lab) was used to detect the binding of benchmark antibodies to cells. The MFI was evaluated by flow cytometry and analyzed by FlowJo.

IC50 (read off the curve): ~3 nM
B1: 1.53.3-uAb-IgG4k (antibody, V domains shown)
VH: QVQLQQWGAGLLKPSETLSLTCGVYGGSFSGYYWSWIRQPPGMGLEWIGEINHRGNTNYNPSLKSRVTISEDTSKNQFSLRLSSVTAADTAVYFCTRGEDYSDYDYYGDFWGQGTLVTVSS
VL: EIVLTQSPATLSLSQGERATLSCRASQSISSYLAWYQQKPGQAPRLLIYAASNRATGIPARFSGSGSGTDFTLTISSLEPEDFAIYYCQQRSNWPLTFGGGTKVEIK
notes: Fully human antibody from OMT rats; IgG4 kappa by its name

Source: patent US20200407442A1 (WUXI BIOLOGICS IRELAND, published 2020)
